Residue numbers refer to the chain shown, from its start. Names and notes keep the numbering of the source. One block for each binder: values may come before it.
Key:
human BCMA-Fc [1] = biological target: T1, human BCMA-Fc (human, UniProt Q02223 2-54, limits assumed); experiment: binding test not named (data not shown)
T1 construct: Generated in-house; not shown: Fc portion of human IgG1
T1 sequence (looked up): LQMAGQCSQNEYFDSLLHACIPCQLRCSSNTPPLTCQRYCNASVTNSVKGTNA

human TACI-Fc [2] = biological target: T2, human TACI-Fc (human, UniProt O14836 2-160, limits assumed); experiment: binding test not named (data not shown)
T2 construct: Generated in-house; not shown: Fc portion of human IgG1
T2 sequence (looked up): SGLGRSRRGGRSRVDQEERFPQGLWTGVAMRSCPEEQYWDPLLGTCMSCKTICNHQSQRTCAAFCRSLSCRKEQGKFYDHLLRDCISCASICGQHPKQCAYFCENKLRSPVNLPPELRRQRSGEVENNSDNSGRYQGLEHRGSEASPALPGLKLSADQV

[3] = biological target: T3, mouse BCMA-Fc (R&D Systems) (mouse; human, UniProt O88472 2-49, limits assumed); experiment: receptor-binding ELISA, mouse BCMA-Fc coated, dilution series of conditioned medium, anti-FLAG-HRP, OD 405 nm [BCMA selective, Ms BCMA-Fc coated]
T3 construct: Bought; also called mBCMA-Fc; murine BCMA-Fc; not shown: Fc portion of human IgG1
T3 chain (looked up): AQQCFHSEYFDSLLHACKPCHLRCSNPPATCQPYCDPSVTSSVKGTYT
Method: (§1) The relative binding of the variants to either BCMA or TACI, was tested using a binding ELISA. The following proteins were used: human BCMA-Fc, human TACI-Fc (both generated in-house), mouse BCMA-Fc (R&D Systems, Abingdon, UK), mouse TACI-Fc (R&D Systems); in all cases the Fc portion is from human IgG1. BCMA-Fc and TACI-Fc were coated on 96-well Nunc Maxisorp plates (Thermo Fischer Scientific, Roskilde, Denmark) at concentrations of 1 μg/ml and 2 μg/ml, respectively, in 0.5 M sodium bicarbonate buffer pH 9.5, overnight at 4° C. Plates were then blocked with 5% BSA for one hour at 37° C. Soluble APRIL variants in the form of tissue culture conditioned medium were then added to the plate for two hours at 37° C. Following APRIL binding, plates were washed three times with PBS, 0.05% TWEEN®20. Bound APRIL was detected with 1 μg/ml of HRP-coupled anti-FLAG M2 and visualized with 2,2′-azino-bis(3-ethylbenzothiazoline-6-sulphonic acid (ABTS) (Sigma-Aldrich). The absorbance was read at 405 nm using a UV-VIS microplate reader (BioRad, Veenendaal, The Netherlands).

[4] = biological target: T4, mouse TACI-Fc (R&D Systems) (mouse; human, UniProt Q9ET35 5-129, limits assumed); experiment: receptor-binding ELISA, mouse TACI-Fc coated [TACI selective, Ms TACI-Fc coated]
T4 construct: Bought; also called mTACI-Fc; murine TACI-Fc; not shown: Fc portion of human IgG1
T4 sequence (looked up): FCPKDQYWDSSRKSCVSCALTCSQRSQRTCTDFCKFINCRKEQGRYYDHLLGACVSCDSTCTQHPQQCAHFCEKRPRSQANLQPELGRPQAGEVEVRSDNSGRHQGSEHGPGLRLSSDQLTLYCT
Method: as §1

[5] = biological target: T3, mouse BCMA-Fc (R&D Systems); experiment: receptor-binding ELISA, mouse BCMA-Fc coated, dilution series of conditioned medium, anti-FLAG-HRP, OD 405 nm [TACI selective, Ms BCMA-Fc coated]
Method: as §1

human BCMA-Fc [6] = biological target: T1, human BCMA-Fc; experiment: SPR (Biacore 2000), FLAG-APRIL captured by anti-FLAG M2, receptor-Fc injected, single cycle kinetics, 1:1 fit
Method: (§2) FIG. 10: Surface Plasmon Resonance sensorgrams to illustrate binding of TACI-Fc and BCMA-Fc to WT and R206E-APRIL. Sensorgrams of human (Panel A) and mouse (Panel B) receptors binding to WT and R206E-APRIL. Stepwise increments in the curves represent sequential injections of receptor at the following concentrations: […]. In some cases, no value for affinity was calculated due to a low binding response or high drift.
(§3) In order to further assess the binding properties of the mutants and to measure apparent affinities and kinetics of receptor binding, a Surface Plasmon Resonance based receptor binding assay was performed on a Biacore 2000 (GE Healthcare, Diegem, Belgium). Anti-FLAG-M2 monoclonal antibody (Sigma-Aldrich) was diluted at a concentration of 5 μg/ml in 10 mM sodium acetate pH 4.5 and covalently immobilized (approx 1500 RU) to a CM-5 sensor chip (GE Healthcare), using standard amine coupling chemistry according to manufacturer's guidelines (Amine coupling kit, GE Healthcare). The different FLAG-APRIL variants in the form of tissue culture supernatants were captured onto the chip via the FLAG-tag at 10 μl/minute for five minutes, giving capture levels ranging from 159 to 207 RU. As a reference lane, one of the flow cells was left free of soluble FLAG-APRIL, to control for any background binding. BCMA- or TACI-Fc were then injected for three minutes over all four flow cells at 30 μl/minutes at increasing concentrations (ranging from 1-50 nM) using the single cycle kinetics method at 25° C. Dissociation was monitored for five minutes. The resulting curves were fitted using a 1:1 Langmuir model using BIAevaluation software 4.1. For each combination of FLAG-APRIL and BCMA- or TACI-Fc, the apparent kₐ, kd and KD were calculated from a global fit of binding curves from at least three separate experiments. Non-specific binding in the reference cell was subtracted before curve fitting. Regeneration of the anti-FLAG antibody surface was carried out with a 10-minute injection at 30 μl/minute of a mixture of ⅓ volume of TBS pH 11.5, ⅓ volume of Ionic solution and ⅓ volume of water. The Ionic solution was comprised of KSCN (0.46 M), MgCl₂ (1.83 M), urea (0.92 M) and guanidine-HCl (1.83 M).

[7] = biological target: T3, mouse BCMA-Fc (R&D Systems); experiment: as above
Method: as §2, §3

human BCMA-Fc [8] = biological target: T1, human BCMA-Fc; experiment: SPR (Biacore), affinities of R206E for BCMA-Fc and TACI-Fc compared
Method: as §2
In order to further assess the binding properties of the mutants and to measure apparent affinities and kinetics of receptor binding, a Surface Plasmon Resonance based receptor binding assay was performed on a Biacore 2000 (GE Healthcare, Diegem, Belgium). Anti-FLAG-M2 monoclonal antibody (Sigma-Aldrich) was diluted at a concentration of 5 μg/ml in 10 mM sodium acetate pH 4.5 and covalently immobilized (approx 1500 RU) to a CM-5 sensor chip (GE Healthcare), using standard amine coupling chemistry according to manufacturer's guidelines (Amine coupling kit, GE Healthcare). […] Dissociation was monitored for five minutes. […] For each combination of FLAG-APRIL and BCMA- or TACI-Fc, the apparent kₐ, kd and KD were calculated from a global fit of binding curves from at least three separate experiments. […]

human TACI-Fc [9] = biological target: T2, human TACI-Fc; experiment: SPR (Biacore 2000), FLAG-APRIL captured by anti-FLAG M2, receptor-Fc injected, single cycle kinetics, 1:1 fit; SPR (BIAcore), mean ± error of fits; weak but measurable binding
Method: as §2
as §3, with “Regeneration of the anti-FLAG antibody surface was carried out with a 10-minute injection at 30 μl/minute of a mixture of ⅓ volume of TBS pH 11.5, ⅓ volume of Ionic solution and ⅓ volume of water. The Ionic solution was comprised of KSCN (0.46 M), MgCl₂ (1.83 M), urea (0.92 M) and guanidine-HCl (1.83 M).” left out

human TACI-Fc [10] = biological target: T2, human TACI-Fc; experiment: SPR (Biacore 2000), FLAG-APRIL captured by anti-FLAG M2, receptor-Fc injected, single cycle kinetics, 1:1 fit
Method: as §2, §3

human TACI-Fc [11] = biological target: T2, human TACI-Fc; experiment: receptor-binding ELISA, human TACI-Fc coated, doubling dilutions of conditioned medium [TACI-Fc coating]
Method: (§4) FIG. 2: Production and real binding properties of the APRIL mutants. (Panel A) Production of APRIL variants in conditioned medium by transient transfection of 293T cells. Supernatants (10 μl of each) were analyzed by anti-FLAG immunoblotting. Upper panel: mutants predicted to be selective for BCMA. Lower panel: mutants predicted to be selective for TACI. All mutants were checked more than three times following independent rounds of transfection to assess their expression. (Panels B and C) Receptor binding ELISA to compare binding of the predicted BCMA- and TACI-specific APRIL variants to human BCMA-Fc and TACI-Fc. Bars, from left to right, represent doubling dilutions of the conditioned media starting from undiluted media. Relevant APRIL variants are shown with dark grey bars, WT APRIL with black bars and other variants with light grey bars. This is representative of three separate experiments performed with independent APRIL-containing cell-conditioned media.
(§5) The relative binding of the variants to either BCMA or TACI, was tested using a binding ELISA. […] Bound APRIL was detected with 1 μg/ml of HRP-coupled anti-FLAG M2 and visualized with 2,2′-azino-bis(3-ethylbenzothiazoline-6-sulphonic acid (ABTS) (Sigma-Aldrich). The absorbance was read at 405 nm using a UV-VIS microplate reader (BioRad, Veenendaal, The Netherlands).

human BCMA-Fc [12] = biological target: T1, human BCMA-Fc; experiment: receptor-binding ELISA, human BCMA-Fc coated, doubling dilutions of conditioned medium [BCMA-Fc coating]
Method: as §4, §5

[13] = biological target: T3, mouse BCMA-Fc (R&D Systems); experiment: receptor-binding ELISA, mouse BCMA-Fc coated [TACI selective, Ms BCMA-Fc coated]
Method: as §1

- binding result [3]: binds
B2: APRIL-T175D (FLAG-tagged soluble variant) (ligand)
chain: AVLTQKQKKQHSVLHLVPINATSKDDSDVTEVMWQPALRRGRGLQAQGYGVRIQDAGVYLLYSQVLFQDVDFTMGQVVSREGQGRQETLFRCIRSMPSHPDRAYNSCYSAGVFHLHQGDILSVIIPRARAKLNLSPHGTFLGFVKL
notes: Used as conditioned medium; not shown: FLAG tag

- binding result [4]: no binding
- binding result [5]: binds
B3: T175Y (ligand)
soluble APRIL monomer: B2 chain with D71Y
notes: FLAG-tagged soluble variant used as 293T conditioned medium; predicted TACI-selective; member of group m13; also called APRIL-T175Y

- binding result (human BCMA-Fc [1]): no binding
- binding result (human TACI-Fc [2]): no binding
B4: APRIL T175D-R206E double mutant (ligand)
chain: B2 chain with R102E
notes: not shown: FLAG tag

- binding result (human BCMA-Fc [1]): no binding
- binding result (human TACI-Fc [2]): no binding
B5: APRIL T175D-D205Y double mutant (ligand)
chain: B2 chain with D101Y
notes: also called T175D-D205Y/K; not shown: FLAG tag

- Kd (human BCMA-Fc [6]): 0.46 nM
- koff (human BCMA-Fc [6]): 0.00015 s⁻¹
- kon (human BCMA-Fc [6]): 330000 M⁻¹ s⁻¹
- Kd [7]: 0.095 nM
- koff [7]: 0.00015 s⁻¹
- kon [7]: 1.6e+06 M⁻¹ s⁻¹
- fold selectivity for BCMA over TACI (comparison of affinities) (human BCMA-Fc [8]): 25 fold
- Kd (human TACI-Fc [9]): 11 nM
- koff (human TACI-Fc [9]): 0.01 s⁻¹
- kon (human TACI-Fc [9]): 2e+06 M⁻¹ s⁻¹
B7: APRIL-R206E (FLAG-tagged soluble variant) (ligand)
chain: B2 chain with D71T, R102E
notes: Used as conditioned medium; also called R206E-APRIL; not shown: FLAG tag

Further lines, the binder ahead of its results:

B1: APRIL T175D-D205K double mutant (ligand)
chain: B2 chain with D101K
notes: as for B5
- binding result (human BCMA-Fc [1]): no binding
- binding result (human TACI-Fc [2]): no binding

B6: T175L (ligand)
soluble APRIL monomer: B2 chain with D71L
notes: FLAG-tagged soluble variant used as 293T conditioned medium; predicted TACI-selective; member of group m13; also called APRIL-T175L
- binding result [4]: no binding
- binding result [5]: binds

B8: APRIL-R206M (FLAG-tagged soluble variant) (ligand)
chain: B2 chain with D71T, R102M
notes: as for B2
- Kd (human TACI-Fc [10]): 0.32 nM
- koff (human TACI-Fc [10]): 0.00016 s⁻¹
- kon (human TACI-Fc [10]): 490000 M⁻¹ s⁻¹
- binding result [3]: binds

B9: APRIL-D205Y (FLAG-tagged soluble variant) (ligand)
chain: B2 chain with D71T, D101Y
notes: as for B2
- binding result [3]: binds

B10: APRIL-R231A (FLAG-tagged soluble variant) (ligand)
chain: B2 chain with D71T, R127A
notes: also called receptor-dead R231A variant; not shown: FLAG tag
- binding result [4]: no binding
- binding result (human TACI-Fc [11]): no binding (tested: undiluted conditioned medium)
- binding result (human BCMA-Fc [12]): no binding (tested: undiluted conditioned medium)
- binding result [13]: no binding

Source: patent US20140178329A1 (INSTITUCIO CATALANA DE RECERCA I ESTUDIS AVANCATS ICREA, published 2014)
